# Measurements reported in patent publication US20040018971A1 (published 2004).
# B1: Her2/neu.336 (peptide)
# peptide: KPCARVCYGL
# notes: native HER2/neu peptide from position 336
# B2: Her2/neu.642 (peptide)
# peptide: CPAEQRASPL
# notes: native HER2/neu peptide from position 642
# Target: HLA-B*0702 (human)
# Assay: competition with 125I probe peptide, purified HLA
row,Binder,IC50 [nM]
1,SPGGLREL [Her2/neu.133 (8-mer)],100
2,B1,149
3,SPGGLRELQL [Her2/neu.133 (10-mer)],95
4,B2,37

# Target: T1, HLA-A*0101 (human)
# T1 construct: also called HLA-A1
# Assay: competition with 125I-labelled probe peptide for purified HLA-A*0101, gel filtration; relative to standard peptide
row,Binder,relative binding ratio (IC50 of standard peptide / IC50 of test peptide) [relative binding ratio]
1,"FGASCVTACPY [HER2/neu peptide, position 291, 11 amino acids]",0.01
2,"PTHDPSPLQRY (H is used here) [HER2/neu peptide, position 1102, 11 amino acids]",0.016
3,"LQDIQEVQGY [HER2/neu peptide, position 74, 10 amino acids]",0.0015
4,"PSGVKPDLSY [HER2/neu peptide, position 601, 10 amino acids]",0.001
5,"FSPAFDNLY [HER2/neu peptide, position 1213, 9 amino acids]",0.043
6,"SMPNPEGRY [HER2/neu peptide, position 281, 9 amino acids]",0.0028
7,"NKEILDEAY [HER2/neu peptide, position 764, 9 amino acids]",0.0017
8,"QIAKGMSY [HER2/neu peptide, position 828, 8 amino acids]",-0.0021
9,"KCSKPCARVCY [HER2/neu peptide, position 333, 11 amino acids]",-0.0017
10,"LEEITGYLY [HER2/neu peptide, position 403, 9 amino acids]",0.0057
11,"MTFGAKPY [HER2/neu peptide, position 916, 8 amino acids]",-0.0021
12,"PTAENPEY [HER2/neu peptide, position 1241, 8 amino acids]",0.003
13,"MGDLVDAEEY [HER2/neu peptide, position 1014, 10 amino acids]",0.012
14,"SGAFGTVY [HER2/neu peptide, position 728, 8 amino acids]",-0.0021
15,"LGSGAFGTVY [HER2/neu peptide, position 726, 10 amino acids]",0.001
16,"GSGAFGTVY [HER2/neu peptide, position 727, 9 amino acids]",0.0011
17,"GASCVTACPY [HER2/neu peptide, position 292, 10 amino acids]",0.0012
18,"HQSDVWSY [HER2/neu peptide, position 901, 8 amino acids]",-0.0021
19,"LMTFGAKPY [HER2/neu peptide, position 915, 9 amino acids]",0.0011

# Target: T2, HLA-DR3 (DRB1*0301) (human)
# T2 construct: purified HLA class II molecule
# Assay: competition binding assay, purified HLA, 125I-labelled probe peptide, gel filtration
row,Binder,relative binding ratio
1,RSLLEDDDMGDLVDA (also called Her2/neu.1006) [HER2/neu peptide RSLLEDDDMGDLVDA (position 1006)],0.008 ratio to standard peptide
2,MRRLLQETELVEPLT (also called Her2/neu.687) [HER2/neu peptide MRRLLQETELVEPLT (position 687)],-0.0027 ratio to standard peptide
3,VTCFGPEADQCVACA (also called Her2/neu.574) [HER2/neu peptide VTCFGPEADQCVACA (position 574)],-0.0027 ratio to standard peptide
4,DTILWKDIFHKNNQL (also called Her2/neu.165) [HER2/neu peptide DTILWKDIFHKNNQL (position 165)],-0.0027 ratio to standard peptide
5,NQEVTAEDGTQRCEK (also called Her2/neu.319) [HER2/neu peptide NQEVTAEDGTQRCEK (position 319)],-0.0027 ratio to standard peptide
6,VHTVPWDQLFRNPHQ (also called Her2/neu.477) [HER2/neu peptide VHTVPWDQLFRNPHQ (position 477)],0.022 ratio to standard peptide
7,YNYLSTDVGSCTLVC (also called Her2/neu.301) [HER2/neu peptide YNYLSTDVGSCTLVC (position 301)],0.0059 ratio to standard peptide
8,SDVFDGDLGMGAAKG (also called Her2/neu.1083) [HER2/neu peptide SDVFDGDLGMGAAKG (position 1083)],-0.0025 ratio to standard peptide
9,YRSLLEDDDMGDLVD (also called Her2/neu.1005) [HER2/neu peptide YRSLLEDDDMGDLVD (position 1005)],0.063 ratio to standard peptide
10,IWKFPDEEGACQPCP (also called Her2/neu.613) [HER2/neu peptide IWKFPDEEGACQPCP (position 613)],-0.0027 ratio to standard peptide
11,PSGVKPDLSYMPIWK (also called Her2/neu.601) [HER2/neu peptide PSGVKPDLSYMPIWK (position 601)],-0.0027 ratio to standard peptide
12,TAPLQPEQLQVFETL (also called Her2/neu.389) [HER2/neu peptide TAPLQPEQLQVFETL (position 389)],0.0023 ratio to standard peptide
13,DNLYYWDQDPPERGA (also called Her2/neu.1218) [HER2/neu peptide DNLYYWDQDPPERGA (position 1218)],-0.0025 ratio to standard peptide
14,LVTYNTDTFESMPNP (also called Her2/neu.271) [HER2/neu peptide LVTYNTDTFESMPNP (position 271)],-0.0027 ratio to standard peptide
15,TVPLPSETDGYVAPL (also called Her2/neu.1117) [HER2/neu peptide TVPLPSETDGYVAPL (position 1117)],-0.0025 ratio to standard peptide
16,KNGVVKDVFAFGGAV (also called Her2/neu.1177) [HER2/neu peptide KNGVVKDVFAFGGAV (position 1177)],-0.0025 ratio to standard peptide
17,AIKVLRENTSPKANK (also called Her2/neu.751) [HER2/neu peptide AIKVLRENTSPKANK (position 751)],0.0075 ratio to standard peptide
18,SLSFLQDIQEVQGYV (also called Her2/neu.70) [HER2/neu peptide SLSFLQDIQEVQGYV (position 70)],0.052 ratio to standard peptide
19,NKEILDEAYVMAGVG (also called Her2/neu.764) [HER2/neu peptide NKEILDEAYVMAGVG (position 764)],0.0047 ratio to standard peptide
20,KGPLPTDCCHEQCAA (also called Her2/neu.228) [HER2/neu peptide KGPLPTDCCHEQCAA (position 228)],-0.0027 ratio to standard peptide
21,SLAFLPESFDGDPAS (also called Her2/neu.373) [HER2/neu peptide SLAFLPESFDGDPAS (position 373)],-0.0027 ratio to standard peptide
22,ETEYHADGGKVPIKW (also called Her2/neu.874) [HER2/neu peptide ETEYHADGGKVPIKW (position 874)],-0.0027 ratio to standard peptide
23,DLTLGLEPSEEEAPR (also called Her2/neu.1058) [HER2/neu peptide DLTLGLEPSEEEAPR (position 1058)],-0.0025 ratio to standard peptide
24,GDLVDAEEYLVPQQG (also called Her2/neu.1015) [HER2/neu peptide GDLVDAEEYLVPQQG (position 1015)],0.025 ratio to standard peptide
25,FVVIQNEDLGPASPL (also called Her2/neu.986) [HER2/neu peptide FVVIQNEDLGPASPL (position 986)],-0.0025 ratio to standard peptide
